Reference: paper PMC4556779 (Redox Biology, 2015)

Target: the molecule itself
Experiment: SEC

B1: sulfinylated Myc-Tsa1 (CP-SO2H), from H2O2-exposed cells (enzyme, S. cerevisiae, UniProt P34760 1-196, looked up)
chain: MVAQVQKQAPTFKKTAVVDGVFDEVSLDKYKGKYVVLAFIPLAFTFVCPTEIIAFSEAAKKFEEQGAQVLFASTDSEYSLLAWTNIPRKEGGLGPINIPLLADTNHSLSRDYGVLIEEEGVALRGLFIIDPKGVIRHITINDLPVGRNVDEALRLVEAFQWTDKNGTVLPCNWTPGAATIKPTVEDSKEYFEAANK
modifications: sulfinic acid (CP-SO2H) at the peroxidatic Cys (CP, C48)
stoichiometry N: ~20
